The test has as its target acetylcholine receptor (Homo sapiens, UniProt P02708). Put plainly: SPR binding affinity (RU) of optimized 5mer/6mer/7mer peptides, Examples 6-7. The note with it: SPR, peptides tested at 10 μM, 6mer-1 Bottom sequence (Table 11). Put shortly:
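Synthetic 5mer and 6mer peptides, built from frequent or infrequent amino-acid combinations, were tested at 10 μM for binding to the human acetylcholine receptor by surface plasmon resonance. Binding is reported in response units (RU).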
A general note: In SPR one partner is held on a chip, and binding of the other changes the refractive index at the surface.

Chain of acetylcholine receptor (P02708 21-457): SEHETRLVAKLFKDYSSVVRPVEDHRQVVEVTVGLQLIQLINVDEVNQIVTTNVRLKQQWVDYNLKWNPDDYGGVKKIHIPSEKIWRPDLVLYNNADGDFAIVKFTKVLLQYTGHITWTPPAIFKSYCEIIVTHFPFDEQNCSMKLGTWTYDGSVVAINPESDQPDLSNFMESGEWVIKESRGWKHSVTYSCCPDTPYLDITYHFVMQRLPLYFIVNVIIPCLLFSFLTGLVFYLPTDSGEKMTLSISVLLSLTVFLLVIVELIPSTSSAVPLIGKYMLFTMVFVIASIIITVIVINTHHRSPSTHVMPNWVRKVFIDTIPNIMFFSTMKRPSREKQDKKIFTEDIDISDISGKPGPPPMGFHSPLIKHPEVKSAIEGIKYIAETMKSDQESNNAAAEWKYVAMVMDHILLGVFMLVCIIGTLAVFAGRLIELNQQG

Take 6mer-1-794 (RKYEPK): the Binding affinity (Resonance Units) was determined as 11 Ru. Take 6mer-1-795 (KKCHMR): the Binding affinity (Resonance Units) is 12 Ru. In the case of 6mer-1-796 (RRHAFK), for the setting “Resonance Units”, the Binding affinity was found to be 28 Ru.

As for 6mer-1-797 (RRAWNK), the Binding affinity (Resonance Units) is recorded as 22 Ru. Regarding 6mer-1-798 (RRDCFR), the Binding affinity is 18 Ru. 6mer-1-799 (RRKKKR): the Binding affinity came out at 30 Ru. The same measure, in the same setting: the figure for 6mer-1-800 (RREHIR) is 15 Ru; for 6mer-1-801 (KKCAVK) it is 18 Ru. Same read-out and setting: next, 6mer-1-802 (RKYHGR): 32 Ru; 6mer-1-803 (RKMKHK): 31 Ru; 6mer-1-804 (KRDPFR): 31 Ru. The same measure, in the same setting: the figure for 6mer-1-805 (KRDTMK) is 24 Ru; for 6mer-1-806 (RKKTIR) it is 12 Ru. As to 6mer-1-807 (RRDKNR), the Binding affinity is given as 13 Ru. Same read-out and setting: the figure for 6mer-1-808 (RRFEKK) is 24 Ru; for 6mer-1-809 (KKKSNR) it is 12 Ru; for 6mer-1-810 (RKCNAR) it is 12 Ru. Still for that read-out and setting: the figure for 6mer-1-811 (KRHCHK) is 16 Ru; for 6mer-1-812 (RKDHMK) it is 26 Ru; for 6mer-1-813 (RREDFK) it is 15 Ru. On the same count and under the same terms, the figure for 6mer-1-814 (KKCNAK) is 15 Ru; for 6mer-1-815 (RRFEMR) it is 23 Ru. Regarding 6mer-1-816 (RKIDFK), the Binding affinity is 14 Ru. Regarding 6mer-1-817 (RRIMKR), the Binding affinity turned out to be 16 Ru. On the same count and under the same terms, the figure for 6mer-1-818 (RKIKAR) is 14 Ru. On to 6mer-1-819 (KRMHAK), for which the Binding affinity came to 17 Ru. As to 6mer-1-820 (KRNDGK), the Binding affinity stood at 12 Ru.

6mer-1-821 (RRTTNR): the Binding affinity was determined as 22 Ru. Take 6mer-1-822 (KREPIK): the Binding affinity turned out to be 17 Ru.

Turning to 6mer-1-823 (KRHTGK), the Binding affinity is listed as 12 Ru. In the case of 6mer-1-824 (KKMNIK), the Binding affinity is recorded as 12 Ru.

As for 6mer-1-825 (RKEKWK), the Binding affinity is 30 Ru. On to 6mer-1-826 (KKAHMR), for which the Binding affinity turned out to be 31 Ru. Same read-out and setting: next, 6mer-1-827 (RKKKFR): 30 Ru; 6mer-1-828 (RRPNMK): 26 Ru; 6mer-1-829 (RRIHKK): 25 Ru. Same read-out and setting: next, 6mer-1-830 (KKTTMK): 33 Ru; 6mer-1-831 (KKNPWK): 15 Ru. On the same count and under the same terms, the figure for 6mer-1-832 (RKYWGK) is 12 Ru; for 6mer-1-833 (RRYKNR) it is 19 Ru. As for 6mer-1-834 (KRNTIR), the Binding affinity turned out to be 17 Ru. The same measure, in the same setting: next, 6mer-1-835 (KRTADK): 26 Ru. For 6mer-1-836 (RRCMIK), the Binding affinity came out at 22 Ru.

As for 6mer-1-837 (KRDHAK), the Binding affinity worked out at 19 Ru. The same measure, in the same setting: the figure for 6mer-1-838 (KRNTWK) is 17 Ru. Consider 6mer-1-839 (KRNWAK), for which the Binding affinity worked out at 29 Ru.

As to 6mer-1-840 (RKICNK), the Binding affinity is 12 Ru. Turning to 6mer-1-841 (KKDAPR), the Binding affinity stood at 30 Ru. As for 6mer-1-842 (RRFANK), the Binding affinity turned out to be 11 Ru. In the case of 6mer-1-843 (KKKTIK), the Binding affinity is on record as 28 Ru. In the case of 6mer-1-844 (KKPMNR), the Binding affinity was 28 Ru. As for 6mer-1-845 (KKIDKK), the Binding affinity stood at 23 Ru. On the same count and under the same terms, next, 6mer-1-846 (RKDAEK): 28 Ru; 6mer-1-847 (KKYNHK): 20 Ru; 6mer-1-848 (RKTMFK): 19 Ru. On the same count and under the same terms, the figure for 6mer-1-849 (KKFNWK) is 21 Ru; for 6mer-1-850 (RRNPEK) it is 29 Ru; for 6mer-1-851 (RRYMEK) it is 30 Ru.

With 6mer-1-852 (KRASVK), the Binding affinity was found to be 19 Ru. On the same count and under the same terms, next, 6mer-1-853 (KRCNGR): 30 Ru. Consider 6mer-1-854 (KKEAVR), for which the Binding affinity is 16 Ru. For 6mer-1-855 (RKCDVR), the Binding affinity is given as 15 Ru.

Consider 6mer-1-856 (KRMWFK), for which the Binding affinity turned out to be 30 Ru. With 6mer-1-857 (KRPAFK), the Binding affinity amounted to 14 Ru. Still for that read-out and setting: the figure for 6mer-1-858 (KKKHKR) is 27 Ru; for 6mer-1-859 (RKCMVK) it is 27 Ru. In the case of 6mer-1-860 (RKHWWR), the Binding affinity stood at 22 Ru. For the substance 6mer-1-861 (KRINIR), the Binding affinity is on record as 21 Ru.

As for 6mer-1-862 (KKHSEK), the Binding affinity was determined as 32 Ru.

With 6mer-1-863 (RRCTER), the Binding affinity came out at 27 Ru. Take 6mer-1-864 (RRTWGR): the Binding affinity is 32 Ru. As to 6mer-1-865 (KKMTAR), the Binding affinity is reported as 21 Ru.

Regarding 6mer-1-866 (KRCHFR), the Binding affinity was found to be 26 Ru. The same measure, in the same setting: next, 6mer-1-867 (KRIPMR): 25 Ru; 6mer-1-868 (KKHHAR): 14 Ru.

6mer-1-869 (KRKDER): the Binding affinity is on record as 22 Ru. On the same count and under the same terms, the figure for 6mer-1-870 (KRMSHR) is 25 Ru; for 6mer-1-871 (KREWDR) it is 30 Ru; for 6mer-1-872 (KRPCHR) it is 23 Ru. 6mer-1-873 (KRIWAR): the Binding affinity amounted to 23 Ru.

In the case of 6mer-1-874 (KRANHK), the Binding affinity was found to be 18 Ru.

Regarding 6mer-1-875 (KKTNGR), the Binding affinity is reported as 33 Ru.

Consider 6mer-1-876 (RKYWAR), for which the Binding affinity was 19 Ru. Still for that read-out and setting: the figure for 6mer-1-877 (KKPEWR) is 19 Ru. Still for that read-out and setting: next, 6mer-1-878 (RRKDNR): 27 Ru. As to 6mer-1-879 (RRYNNR), the Binding affinity turned out to be 27 Ru.

As to 6mer-1-880 (KRPMDK), the Binding affinity stood at 21 Ru. With 6mer-1-881 (KKHMER), the Binding affinity is 20 Ru. Turning to 6mer-1-882 (KKPAMR), the Binding affinity was found to be 25 Ru. Same read-out and setting: next, 6mer-1-883 (KKIDDK): 21 Ru; 6mer-1-884 (KRYTKR): 26 Ru; 6mer-1-885 (RRKTPR): 17 Ru. On to 6mer-1-886 (RKFSNK), for which the Binding affinity was 17 Ru. On the same count and under the same terms, next, 6mer-1-887 (KRINHR): 30 Ru; 6mer-1-888 (KKTANK): 33 Ru. Still for that read-out and setting: next, 6mer-1-889 (KRIMEK): 25 Ru; 6mer-1-890 (RRTSNK): 18 Ru; 6mer-1-891 (RKMAFR): 13 Ru. For the substance 6mer-1-892 (RKTEKR), the Binding affinity came to 20 Ru. On to 6mer-1-893 (RRIPHR), for which the Binding affinity is 22 Ru. Still for that read-out and setting: next, 6mer-1-894 (RKCWWR): 18 Ru. Same read-out and setting: next, 6mer-1-895 (KKDSKK): 28 Ru; 6mer-1-896 (KRDWIK): 11 Ru.

Take 6mer-1-897 (RRPSIK): the Binding affinity is 24 Ru. Same read-out and setting: next, 6mer-1-898 (RKATKR): 31 Ru; 6mer-1-899 (KRMKWK): 31 Ru. On the same count and under the same terms, next, 6mer-1-900 (RRDTGR): 24 Ru; 6mer-1-901 (RKPNGR): 35 Ru; 6mer-1-902 (RRDKMK): 39 Ru. The same measure, in the same setting: the figure for 6mer-1-903 (KKHKPR) is 37 Ru; for 6mer-1-904 (KKDTKR) it is 31 Ru; for 6mer-1-905 (RRICER) it is 36 Ru. Take 6mer-1-906 (KKINGK): the Binding affinity stood at 30 Ru. As to 6mer-1-907 (RKPAWR), the Binding affinity turned out to be 42 Ru. On the same count and under the same terms, next, 6mer-1-908 (KKFMVR): 37 Ru; 6mer-1-909 (RKFCMR): 33 Ru; 6mer-1-910 (KRPTIR): 42 Ru. For the substance 6mer-1-911 (KRCAAR), the Binding affinity stood at 28 Ru. Still for that read-out and setting: next, 6mer-1-912 (KKETFR): 33 Ru. Consider 6mer-1-913 (KRFWWK), for which the Binding affinity is 27 Ru.

Take 6mer-1-914 (RRKCVR): the Binding affinity is listed as 39 Ru.

Take 6mer-1-915 (RKDTWK): the Binding affinity came to 27 Ru. For the substance 6mer-1-916 (RRNAAK), the Binding affinity is 33 Ru. On to 6mer-1-917 (KRADDK), for which the Binding affinity is listed as 27 Ru.

Regarding 6mer-1-918 (RRESMR), the Binding affinity is 33 Ru. 6mer-1-919 (RKDHIK): the Binding affinity is given as 26 Ru. Still for that read-out and setting: the figure for 6mer-1-920 (RRPAMR) is 40 Ru; for 6mer-1-921 (RKFWHR) it is 36 Ru.

As to 6mer-1-922 (RRDWGR), the Binding affinity came to 34 Ru. On the same count and under the same terms, next, 6mer-1-923 (RRASDR): 43 Ru; 6mer-1-924 (RKFNWR): 29 Ru; 6mer-1-925 (KKAMHR): 42 Ru. Take 6mer-1-926 (KRESDR): the Binding affinity is given as 40 Ru.

For the origin of these results see patent publication US20250011363A1, “OPTIMIZED SHORTENED PEPTIDE THAT BINDS TO ACETYLCHOLINE RECEPTOR, AND USE THEREOF” (SKINMED CO., LTD., priority 2021, published 2025).
